The source of these data is patent publication US20200405833A1 (AFFIMED, published 2020).

The target in test [1] is T1, human EGFR on cells (human, UniProt P00533 25-1210).
T1 construct: whole, on cells; also called EGFR+ CHO cells
Nature of the test: flow cytometry on HCT-116 cells, 37°C; mean of 2 experiments. On the technique in general: In flow cytometry, cells or beads pass a laser one at a time.
Experimental: After the last staining step, the cells were washed again and resuspended in 0.2 mL of FACS buffer containing 2 μg/mL propidium iodide (PI) (Sigma, cat.: P4170) in order to exclude dead cells. The fluorescence of 2-5×10³ living cells was measured using a Millipore Guava EasyCyte flow cytometer (Merck Millipore, Schwalbach, Germany). Mean fluorescence intensities of the cell samples were calculated using the Incyte software (Merck Millipore, Schwalbach, Germany). After subtracting the fluorescence intensity values of the cells stained with the secondary and tertiary reagents alone, the values were used for non-linear regression analysis using the GraphPad Prism software (GraphPad Prism version 6.00 for Windows, GraphPad Software, La Jolla Calif. USA). For the calculation of KD, the equation for one-site-binding (hyperbola) was used.

Test [2] concerns the target T1, human EGFR on cells. Kind of test: cell-based or functional assay.
For test [3], the target named is T2, CD16A on primary human NK-cells (human, UniProt P08637 17-254).
T2 construct: whole, on cells; also called FcγRIIIA
Nature of the test: flow cytometry on primary human NK-cells, 37°C, without IgG; mean of 2 experiments.
Experimental: (§1) After the last staining step, the cells were washed again and resuspended in 0.2 mL of FACS buffer containing 2 μg/mL propidium iodide (PI) (Sigma, cat.: P4170) in order to exclude dead cells. The fluorescence of 2-5×10³ living cells was measured using a Millipore Guava EasyCyte flow cytometer (Merck Millipore, Schwalbach, Germany). Mean fluorescence intensities of the cell samples were calculated using Incyte software (Merck Millipore, Schwalbach, Germany). After subtracting the fluorescence intensity values of the cells stained with the secondary and tertiary reagents alone, the values were used for non-linear regression analysis using the GraphPad Prism software (GraphPad Prism version 6.00 for Windows, GraphPad Software, La Jolla Calif. USA). For the calculation of KD, the equation for one-site-binding (hyperbola) was used.
(§2) To assess the impact of physiological concentrations of human IgG on the binding capacity of bispecific EGFR/CD16A antigen-binding proteins, binding assays with several bispecific EGFR/CD16A antigen-binding proteins on primary human NK-cells were performed in presence or absence of 10 mg/mL polyclonal human IgG as exemplarily shown in FIG. 10.

Test [4] deals with T1, human EGFR on cells. Nature of the test: cell-based or functional assay. This is another data set of the same source.
The target of test [5] is T1, human EGFR on cells. Nature of the test: flow cytometry on EGFR-expressing A-431 cells, 37° C.
The target in test [6] is T1, human EGFR on cells. Kind of test: flow cytometry on CHO cells expressing recombinant human EGFR, 37°C; apparent affinity.
Experimental: (§3) After last staining step, the cells were washed again and resuspended in 0.2 mL of FACS buffer containing 2 μg/mL propidium iodide (PI) (Sigma, cat.: P4170) in order to exclude dead cells. The fluorescence of 2-5×10³ living cells was measured using a Beckman-Coulter FC500 MPL flow cytometer using the MXP software (Beckman-Coulter, Krefeld, Germany) or a Millipore Guava EasyCyte flow cytometer (Merck Millipore, Schwalbach, Germany). Mean fluorescence intensities of the cell samples were calculated using CXP software (Beckman-Coulter) or Incyte software (Merck Millipore, Schwalbach, Germany). After subtracting the fluorescence intensity values of the cells stained with the secondary and tertiary reagents alone, the values were used for non-linear regression analysis using the GraphPad Prism software (GraphPad Prism version 6.00 for Windows, GraphPad Software, La Jolla Calif. USA). For the calculation of KD, the equation for one-site-binding (hyperbola) was used.
Test [7] has as its target T2, CD16A on primary human NK-cells. Kind of test: flow cytometry on primary human NK-cells, 37°C, with 10 mg/mL polyclonal human IgG (Gammanorm); mean of 2 experiments.
Experimental: as §1, §2
Test [8] concerns the target T3, Mouse FcRn (FCGRT/B2M) (mouse, UniProt Q61559 22-297; P01887 21-119, biotin-labelled (Avi-Tag)).
T3 construct: Purchased; also called murine FcRn; murine FcRn receptor
T3 sequence (looked up): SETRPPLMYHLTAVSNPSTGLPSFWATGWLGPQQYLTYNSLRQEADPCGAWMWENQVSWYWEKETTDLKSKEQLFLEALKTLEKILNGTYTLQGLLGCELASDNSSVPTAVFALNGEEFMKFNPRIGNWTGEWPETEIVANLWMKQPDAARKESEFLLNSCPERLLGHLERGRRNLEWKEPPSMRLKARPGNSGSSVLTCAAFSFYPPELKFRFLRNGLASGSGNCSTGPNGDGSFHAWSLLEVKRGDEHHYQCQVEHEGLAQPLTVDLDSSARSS
T3 sequence (b2m, looked up): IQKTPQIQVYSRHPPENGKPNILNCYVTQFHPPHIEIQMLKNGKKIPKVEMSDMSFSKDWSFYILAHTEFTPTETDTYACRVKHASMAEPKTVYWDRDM
Kind of test: SPR (Biacore T200), pH 6.0, biotinylated FcRn captured, multi cycle kinetics. In general terms: In SPR one partner is held on a chip, and binding of the other changes the refractive index at the surface.
Experimental: (§4) Binding of EGFR/CD16A antigen-binding proteins to FcRn (human, cynomolgus, murine) was measured on a Biacore T200 Instrument at 25° C. using PBS-T buffer pH 6.0 as running buffer and for dilution (1×Gibco PBS, 0.005% Tween20, titrated to pH 6.0 using 4 M HCl). For this purpose, a Multi Cycle Kinetic experiments was performed using Biotin CAPture Kit (GE Healthcare). For activation of the sensor surface, Biotin CAPture reagent (GE Healthcare) was injected to Flow Cells Fc 1-4 (100 sec, 5 μL/min) resulting in a response of 2100 RU-2800 RU. Biotinylated FcRn of different species were injected to Flow Cell Fc 2 (5 μL/min) resulting in a response of about 8-15 RU. A dilution series of EGFR/CD16A antigen-binding proteins was in (pH 7.4) as running buffer and for dilution. […] Chip was regenerated using Regeneration solution (GE Healthcare) (10 μL/min, Flow cells 1-4, 120 sec). Sensorgrams are referenced by subtraction of zero concentration cycle and subtraction of signals in reference channel Fc 1 (Fc 2-1, Fc 3-1, Fc 4-1). […] Chip was regenerated using Regeneration solution (GE Healthcare) (10 μL/min, Flow cells 1-4, 120 sec). […] Binding kinetics were evaluated by fitting data to 1:1 Binding Model (Rmax and RI locally fitted) using Biacore T200 Evaluation Software.

Test [9] concerns the target T4, Human FcRn (FCGRT/B2M) (human, UniProt P55899 24-297; P61769 21-119, biotin-labelled (site not stated)).
T4 construct: Purchased; also called FcRn (FCGRT/B2M), His-Tag, Biotin-Labeled, (Human) HiP Cat #71283
Described as above.

The target in test [10] is T5, Cynomolgus FcRn (FCGRT/B2M) (cynomolgus, UniProt Q8SPV9 24-297; Q8SPW0 21-119, biotin-labelled (Avi-Tag)).
T5 construct: Purchased; also called FcRn (FCGRT/B2M), Avi-Tag, Biotin-Labeled, (Cynomolgus) Acro Cat #FCM-C82W5
The test is described as above.
Experimental: as §4

The next test deals with T6, EGFRvIII on CHO cells (human, UniProt P00533 25-1210).
T6 construct: whole, on cells; the exon 2-7 deletion must be applied; also called EGFRvIII+ CHO cells
Nature of the test: flow cytometry on CHO cells expressing recombinant EGFRvIII, 37°C; apparent affinity.

The target in test [11] is T2, CD16A on primary human NK-cells. Kind of test: flow cytometry on primary human NK-cells, 37° C., with 10 mg/mL gammanorm (polyclonal human IgG).
Experimental: as §1, §2
The target of another test is T7, CD16A-antigen (ELISA).
T7 construct: also called CD16A-Fc
Kind of test: ELISA, coated CD16A-Fc antigen, tandem diabody titrated (His-tagged analyte, Penta-HIS-HRP per paragraph 126). On the technique in general: An ELISA detects its analyte on a solid surface through an enzyme-linked reagent.

The target in test [12] is T1, human EGFR on cells. Kind of test: cell-based or functional assay. This is another data set of the same source.
The target in the next test is T8, EGFR-antigen (ELISA).
T8 construct: also called EGFR-Fc
Nature of the test: ELISA, coated EGFR-Fc antigen, tandem diabody titrated (His-tagged analyte, Penta-HIS-HRP per paragraph 126).

A further test addresses T9, huCD16A^RV-His (human).
T9 construct: soluble, His-tagged; also called CD16-His antigen
Nature of the test: ELISA, coated EGFR/CD16A scFv-IgAb, soluble huCD16A^RV-His titrated (the concentration axis is that of the antigen), Penta-HIS-HRP per paragraph 126.

The target of test [13] is T1, human EGFR on cells. Nature of the test: saturation binding assay on A-431 cells with radioiodinated scFv-IgAB_02; saturation binding assay on A-431 cells.
Test [14] concerns the target T1, human EGFR on cells. Nature of the test: cell-based or functional assay. The source holds these as a separate data set.
For test [15], the target named is T3, Mouse FcRn (FCGRT/B2M). Nature of the test: SPR (Biacore T200), pH 6.0, biotinylated FcRn captured, multi cycle kinetics, 1:1 model.
Experimental: as §4
Test [16] concerns the target T4, Human FcRn (FCGRT/B2M). The description is as above.
Experimental: as §4
A further test concerns the target T10, EGFR-mFc.
T10 construct: Coated at 2.5 µg/mL in ELISA; also called monomeric EGFR-mFc; EGFR-mFc antigen
Nature of the test: ELISA, coated EGFR-mFc antigen, scFv-IgAb titrated, bound construct detected with biotinylated CD16-Fc and streptavidin-HRP.

Test [17] addresses T5, Cynomolgus FcRn (FCGRT/B2M). Nature of the test: SPR (Biacore T200), pH 6.0, biotinylated FcRn captured, multi cycle kinetics, 1:1 model.
Experimental: as §4
The target of another test is huCD16A (human, UniProt P08637 17-208, limits assumed). Nature of the test: RIA assay on huCD16A with radioiodinated scFv-IgAB_02; RIA assay on huCD16A.

T4 sequence (P55899 24-297 limits assumed, chain 1 of 2): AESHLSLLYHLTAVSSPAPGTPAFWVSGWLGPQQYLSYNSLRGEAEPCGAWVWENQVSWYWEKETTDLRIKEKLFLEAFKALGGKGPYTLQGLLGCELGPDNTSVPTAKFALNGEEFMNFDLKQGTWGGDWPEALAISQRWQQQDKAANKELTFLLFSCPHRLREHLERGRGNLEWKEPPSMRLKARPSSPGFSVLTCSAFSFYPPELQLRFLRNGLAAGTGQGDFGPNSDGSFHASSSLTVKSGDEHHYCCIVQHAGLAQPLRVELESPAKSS
T4 sequence (P61769 21-119 limits assumed, chain 2 of 2): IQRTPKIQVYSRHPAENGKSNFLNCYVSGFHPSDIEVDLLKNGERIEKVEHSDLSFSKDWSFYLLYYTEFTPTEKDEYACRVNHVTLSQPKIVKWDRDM
T5 sequence (Q8SPV9 24-297 limits assumed, chain 1 of 2): as the sequence (P55899 24-297 limits assumed, chain 1 of 2) above, with N39D, E44Q, G99S, S189G, S190N, L217M, S269T counted along it
T5 sequence (Q8SPW0 21-119 limits assumed, chain 2 of 2): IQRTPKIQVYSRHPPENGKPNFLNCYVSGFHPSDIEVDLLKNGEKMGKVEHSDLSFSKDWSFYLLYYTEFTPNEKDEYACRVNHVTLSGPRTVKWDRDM
Experimental for CD16A-antigen (ELISA): (§5) 96-well ELISA plates (Immuno MaxiSorp; Nunc) were coated overnight at 4° C. with recombinant antigen or antibodies in 100 mM Carbonate-bicarbonate buffer. […] After a blocking step with 3% (w/v) skim milk powder (Merck) dissolved in PBS, serial dilutions of the different antibodies or soluble antigens in PBS containing 0.3% (w/v) skim milk powder were incubated on the plates for 1.5 h at room temperature. After washing three times with 300 μL per well of PBS containing 0.1% (v/v) Tween 20, plates were incubated with detection antibodies for 1 h at room temperature. For the detection of His-tagged analytes, Penta-HIS-HRP (Qiagen) was used at 1:3000 dilution. […] After washing three times with 300 μL per well of PBS containing 0.1% (v/v) Tween 20, plates were incubated with Tetramethylbenzidine (TMB) substrate (Seramun) until colour development was clearly visible. The reaction was stopped through the addition of 100 μL per well of 0.5 M H₂SO₄. The absorbance was measured at 450 nm using a multilabel plate reader (Victor, Perkin Elmer).
Experimental for EGFR-antigen (ELISA): as §5
Experimental for EGFR-mFc: as §5
Experimental for EGFRvIII on CHO cells: as §3
Experimental for huCD16A^RV-His: as §5

B1: EGFR/CD16A tandem diabody (bispecific antibody)
chain: QVQLQESGPGLVKPSETLSLTCTVSGGSVSSGSYYWSWIRQPPGKGLEWIGYIYYSGSTNYNPSLKSRVTISVDTSKNQFSLKLSSVTAADTAVYYCARNPISIPAFDIWGQGTMVTVSSGGSGGSGGSSYVLTQPSSVSVAPGQTATISCGGHNIGSKNVHWYQQRPGQSPVLVIYQDNKRPSGIPERFSGSNSGNTATLTISGTQAMDEADYYCQVWDNYSVLFGGGTKLTVLGGSGGSQVQLVQSGAEVKKPGESLKVSCKASGYTFTSYYMHWVRQAPGQGLEWMGIINPSGGSTSYAQKFQGRVTMTRDTSTSTVYMELSSLRSEDTAVYYCARGSAYYYDFADYWGQGTLVTVSSGGSGGSGGSQPVLTQPPSVSVAPGKTARITCGGNNIGSKSVHWYQQKPGQAPVLVIYYDSDRPSGIPERFSGSNSGNTATLTISRVEAGDEADYYCQVWDTSSDHVLFGGGTKLTVLAAAGSHHHHHH
notes: no Fc; also called Tandem diaody
By EC50 (read off the curve) is commonly meant the midpoint of the concentration-response curve. Read a high EC50 (read off the curve) as weaker potency. Take B1: the Kd with human EGFR on cells [1] was determined as 0.3 nM; in test [3], 7.7 nM; with human EGFR on cells [6] it was 0.7 nM; in test [7] it was 8.8 nM; with EGFRvIII on CHO cells, 0.5 nM. Besides, in the test with human EGFR on cells [2], the “EC50 [pM] mean, 4 h calcein-release cytotoxicity, A-431 target cells, human NK-cells E:T 5:1” value was 1.1 pM. Moreover, the “EC50, inhibition of EGF-induced EGFR phosphorylation (phospho-EGFR ELISA, A-431 cells), Exp.1” value in the test with human EGFR on cells [4] is over 100 µg/mL. The “EC50, inhibition of EGF-induced EGFR phosphorylation (phospho-EGFR ELISA, A-431 cells), Exp.2” value with human EGFR on cells [4] was over 100 µg/mL. Besides, the “EC50 (read off the curve)” value in the test with human EGFR on cells [5] was about 2 nM; in test [11], about 10 nM; in the test with CD16A-antigen (ELISA) it was about 0.03 µg/mL; in the test with EGFR-antigen (ELISA), about 0.02 µg/mL. The binding result (in the test with Mouse FcRn (FCGRT/B2M) [8]; with Human FcRn (FCGRT/B2M) [9]; in test [10]) was “no binding (tested: up to 3000 nM)” each time. Also, the “EC50 [pM] mean, 4 h calcein-release cytotoxicity, HCT-116 target cells, human NK-cells E:T 5:1” value in the test with human EGFR on cells [12] was 1.5 pM.

B2: scFv-IgAb_02 (bispecific antibody)
heavy: QVQLVQSGAEVKKPGESLKVSCKASGYTFTSYYMHWVRQAPGQGLEWMGIINPSGGSTSYAQKFQGRVTMTRDTSTSTVYMELSSLRSEDTAVYYCARGSAYYYDFADYWGQGTLVTVSSASTKGPSVFPLAPSSKSTSGGTAALGCLVKDYFPEPVTVSWNSGALTSGVHTFPAVLQSSGLYSLSSVVTVPSSSLGTQTYICNVNHKPSNTKVDKKVEPKSCDKTHTCPPCPAPEFEGGPSVFLFPPKPKDTLMISRTPEVTCVVVAVSHEDPEVKFNWYVDGVEVHNAKTKPREEQYNSTYRVVSVLTVLHQDWLNGKEYKCKVSNKALPAPIEKTISKAKGQPREPQVYTLPPSREEMTKNQVSLTCLVKGFYPSDIAVEWESNGQPENNYKTTPPVLDSDGSFFLYSKLTVDKSRWQQGNVFSCSVMHEALHNHYTQKSLSLSPGGGGGSGGGGSQVQLQESGPGLVKPSETLSLTCTVSGGSVSSGSYYWSWIRQPPGKGLEWIGYIYYSGSTNYNPSLKSRVTISVDTSKNQFSLKLSSVTAADTAVYYCARNPISIPAFDIWGQGTMVTVSSGGSGGSGGSGGSGGSGGSQPVLTQPPSVSVAPGKTARITCGGNNIGSKSVHWYQQKPGQAPVLVIYYDSDRPSGIPERFSGSNSGNTATLTISRVEAGDEADYYCQVWDTSSDHVLFGGGTKLTVL
light: SYVLTQPSSVSVAPGQTATISCGGHNIGSKNVHWYQQRPGQSPVLVIYQDNKRPSGIPERFSGSNSGNTATLTISGTQAMDEADYYCQVWDNYSVLFGGGTKLTVLGQPKAAPSVTLFPPSSEELQANKATLVCLISDFYPGAVTVAWKADSSPVKAGVETTTPSKQSNNKYAASSYLSLTPEQWKSHRSYSCQVTHEGSTVEKTVAPTECS
notes: Tetravalent, bispecific: anti-CD16A Fab arms, silenced human IgG1 Fc, anti-EGFR scFv fused C-terminally to CH3; also called EGFR/CD16A scFv-IgAb; scFv-IgAb_2
With B2, the “EC50 [pM] mean, 4 h calcein-release cytotoxicity, A-431 target cells, human NK-cells E:T 5:1” value with human EGFR on cells [2] was 2.1 pM. For the same molecule, the Kd in test [3] is 8 nM; with human EGFR on cells [13], 6.98 nM; with Mouse FcRn (FCGRT/B2M) [15], 180 nM; with Human FcRn (FCGRT/B2M) [16], 430 nM; in test [7], 13.1 nM; in test [17], 842 nM. Besides, the Kd with huCD16A was 0.729 nM. Further, the “EC50 (read off the curve)” value is about 1 nM with huCD16A^RV-His, about 2 nM in the test with human EGFR on cells [5] and about 0.02 µg/mL with EGFR-mFc. In addition, the “EC50 [µg/mL] on A-431 cells, inhibition of EGF-stimulated EGFR phosphorylation (phospho-EGFR ELISA)” value with human EGFR on cells [14] was 1520 µg/mL. Further, the “EC50 [µg/mL] on A-549 cells, inhibition of EGF-stimulated EGFR phosphorylation (phospho-EGFR ELISA)” value with human EGFR on cells [14] came to 478 µg/mL. Besides, the “EC50 [pM] mean, 4 h calcein-release cytotoxicity, HCT-116 target cells, human NK-cells E:T 5:1” value with human EGFR on cells [12] was 4.3 pM.
